In experiment [1] the target is T1, human NPY2 receptor (human, UniProt P49146 1-381).
T1 construct: whole, on cells; also called hNPY2-R; hNPY2R
T1 sequence (looked up): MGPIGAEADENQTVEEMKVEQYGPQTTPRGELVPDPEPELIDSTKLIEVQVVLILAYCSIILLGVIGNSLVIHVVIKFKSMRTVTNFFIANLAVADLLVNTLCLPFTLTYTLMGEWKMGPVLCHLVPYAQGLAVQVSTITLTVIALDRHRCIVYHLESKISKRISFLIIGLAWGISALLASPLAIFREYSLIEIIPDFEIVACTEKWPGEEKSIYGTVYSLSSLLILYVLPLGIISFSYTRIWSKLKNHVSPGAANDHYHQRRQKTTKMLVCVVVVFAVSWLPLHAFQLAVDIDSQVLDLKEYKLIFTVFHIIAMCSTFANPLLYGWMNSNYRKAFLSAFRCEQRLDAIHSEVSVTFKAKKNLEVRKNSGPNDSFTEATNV
Kind of experiment: RLB: displacement of 125I-PYY(1-36) from hNPY2R membranes. In general terms: Displacement assays read how much labelled ligand stays bound in the presence of the test substance.

Experiment [2] has as its target T1, human NPY2 receptor. Kind of experiment: cell-based or functional assay.
In experiment [3] the target is T2, human NPY5 receptor (human, UniProt Q15761 1-445).
T2 sequence (looked up): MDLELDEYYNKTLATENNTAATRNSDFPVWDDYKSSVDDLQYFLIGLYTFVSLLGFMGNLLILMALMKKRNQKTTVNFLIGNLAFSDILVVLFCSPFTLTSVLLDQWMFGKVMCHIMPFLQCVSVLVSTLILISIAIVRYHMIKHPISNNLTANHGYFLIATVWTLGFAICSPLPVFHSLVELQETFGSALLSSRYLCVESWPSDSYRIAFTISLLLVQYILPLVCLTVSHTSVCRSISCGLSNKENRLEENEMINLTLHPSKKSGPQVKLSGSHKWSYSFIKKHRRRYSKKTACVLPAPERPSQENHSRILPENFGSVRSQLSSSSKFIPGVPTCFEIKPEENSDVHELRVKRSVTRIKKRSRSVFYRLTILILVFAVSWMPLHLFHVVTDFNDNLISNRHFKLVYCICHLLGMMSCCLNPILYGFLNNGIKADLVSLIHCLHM
The experiment can be described thus: cell-based or functional assay.

*1 amine or outer side, *2 acyl side, *3 side chain or, on linkers, in order; H or OH if unused. Side-chain parts run from the residue outwards. The star is where a group is joined. C18 diacid = O=C(O)CCCCCCCCCCCCCCCCC(=O)*; γGlu = O=C(O)[C@H](CCC(=O)[*:2])N[*:1]; Isovaleryl = CC(C)CC(=O)*; Ahx = NCCCCCC(=O)O

B1: Compound 14 (peptide)
peptide: Isovaleryl-APEK([Ahx-γGlu-C18 diacid])PPEDASPEELQRYYVSLRHYYNWLTRQRY-NH2
SMILES: CC(C)CC(=O)N[C@@H](C)C(=O)N1CCC[C@H]1C(=O)N[C@@H](CCC(=O)O)C(=O)N[C@@H](CCCCNC(=O)CCCCCNC(=O)CC[C@H](NC(=O)CCCCCCCCCCCCCCCCC(=O)O)C(=O)O)C(=O)N1CCC[C@H]1C(=O)N1CCC[C@H]1C(=O)N[C@@H](CCC(=O)O)C(=O)N[C@@H](CC(=O)O)C(=O)N[C@@H](C)C(=O)N[C@@H](CO)C(=O)N1CCC[C@H]1C(=O)N[C@@H](CCC(=O)O)C(=O)N[C@@H](CCC(=O)O)C(=O)N[C@@H](CC(C)C)C(=O)N[C@@H](CCC(N)=O)C(=O)N[C@@H](CCCNC(=N)N)C(=O)N[C@@H](Cc1ccc(O)cc1)C(=O)N[C@@H](Cc1ccc(O)cc1)C(=O)N[C@H](C(=O)N[C@@H](CO)C(=O)N[C@@H](CC(C)C)C(=O)N[C@@H](CCCNC(=N)N)C(=O)N[C@@H](Cc1c[nH]cn1)C(=O)N[C@@H](Cc1ccc(O)cc1)C(=O)N[C@@H](Cc1ccc(O)cc1)C(=O)N[C@@H](CC(N)=O)C(=O)N[C@@H](Cc1c[nH]c2ccccc12)C(=O)N[C@@H](CC(C)C)C(=O)N[C@H](C(=O)N[C@@H](CCCNC(=N)N)C(=O)N[C@@H](CCC(N)=O)C(=O)N[C@@H](CCCNC(=N)N)C(=O)N[C@@H](Cc1ccc(O)cc1)C(N)=O)[C@@H](C)O)C(C)C
For orientation: Ki means the equilibrium dissociation constant of an inhibitor or competing ligand from its target. Low values mean higher affinity, high ones lower affinity. Regarding B1, the affinity in experiment [1] corresponds to a Ki of 1.28 nM. In addition, the “EC50, HTRF cAMP Gi assay” value in experiment [2] is 0.086 nM; in experiment [3], > 5000 nM.

B2: Compound 15 (peptide)
peptide: Isovaleryl-APEK([Ahx-γGlu-C18 diacid])PEEDASPEEIQQYYVSLRHYYNWLTRQRY-NH2
SMILES: CC[C@H](C)[C@H](NC(=O)[C@H](CCC(=O)O)NC(=O)[C@H](CCC(=O)O)NC(=O)[C@@H]1CCCN1C(=O)[C@H](CO)NC(=O)[C@H](C)NC(=O)[C@H](CC(=O)O)NC(=O)[C@H](CCC(=O)O)NC(=O)[C@H](CCC(=O)O)NC(=O)[C@@H]1CCCN1C(=O)[C@H](CCCCNC(=O)CCCCCNC(=O)CC[C@H](NC(=O)CCCCCCCCCCCCCCCCC(=O)O)C(=O)O)NC(=O)[C@H](CCC(=O)O)NC(=O)[C@@H]1CCCN1C(=O)[C@H](C)NC(=O)CC(C)C)C(=O)N[C@@H](CCC(N)=O)C(=O)N[C@@H](CCC(N)=O)C(=O)N[C@@H](Cc1ccc(O)cc1)C(=O)N[C@@H](Cc1ccc(O)cc1)C(=O)N[C@H](C(=O)N[C@@H](CO)C(=O)N[C@@H](CC(C)C)C(=O)N[C@@H](CCCNC(=N)N)C(=O)N[C@@H](Cc1c[nH]cn1)C(=O)N[C@@H](Cc1ccc(O)cc1)C(=O)N[C@@H](Cc1ccc(O)cc1)C(=O)N[C@@H](CC(N)=O)C(=O)N[C@@H](Cc1c[nH]c2ccccc12)C(=O)N[C@@H](CC(C)C)C(=O)N[C@H](C(=O)N[C@@H](CCCNC(=N)N)C(=O)N[C@@H](CCC(N)=O)C(=O)N[C@@H](CCCNC(=N)N)C(=O)N[C@@H](Cc1ccc(O)cc1)C(N)=O)[C@@H](C)O)C(C)C
In experiment [1], B2 came in with a Ki of 3.98 nM. The “EC50, HTRF cAMP Gi assay” value was 0.14 nM in experiment [2] and > 5000 nM in experiment [3].

B3: Compound 23 (peptide)
peptide: Isovaleryl-APEK([Ahx-γGlu-C18 diacid])PEEEASPEELQRYYVSLRHYYNWLTRQRY-NH2
SMILES: CC(C)CC(=O)N[C@@H](C)C(=O)N1CCC[C@H]1C(=O)N[C@@H](CCC(=O)O)C(=O)N[C@@H](CCCCNC(=O)CCCCCNC(=O)CC[C@H](NC(=O)CCCCCCCCCCCCCCCCC(=O)O)C(=O)O)C(=O)N1CCC[C@H]1C(=O)N[C@@H](CCC(=O)O)C(=O)N[C@@H](CCC(=O)O)C(=O)N[C@@H](CCC(=O)O)C(=O)N[C@@H](C)C(=O)N[C@@H](CO)C(=O)N1CCC[C@H]1C(=O)N[C@@H](CCC(=O)O)C(=O)N[C@@H](CCC(=O)O)C(=O)N[C@@H](CC(C)C)C(=O)N[C@@H](CCC(N)=O)C(=O)N[C@@H](CCCNC(=N)N)C(=O)N[C@@H](Cc1ccc(O)cc1)C(=O)N[C@@H](Cc1ccc(O)cc1)C(=O)N[C@H](C(=O)N[C@@H](CO)C(=O)N[C@@H](CC(C)C)C(=O)N[C@@H](CCCNC(=N)N)C(=O)N[C@@H](Cc1c[nH]cn1)C(=O)N[C@@H](Cc1ccc(O)cc1)C(=O)N[C@@H](Cc1ccc(O)cc1)C(=O)N[C@@H](CC(N)=O)C(=O)N[C@@H](Cc1c[nH]c2ccccc12)C(=O)N[C@@H](CC(C)C)C(=O)N[C@H](C(=O)N[C@@H](CCCNC(=N)N)C(=O)N[C@@H](CCC(N)=O)C(=O)N[C@@H](CCCNC(=N)N)C(=O)N[C@@H](Cc1ccc(O)cc1)C(N)=O)[C@@H](C)O)C(C)C
Turning to B3, in experiment [1], the Ki came out at 12.6 nM. Further, the “EC50, HTRF cAMP Gi assay” value is 0.181 nM in experiment [2] and > 5000 nM in experiment [3].

B4: Compound 26 (peptide)
peptide: Isovaleryl-APAK([Ahx-γGlu-C18 diacid])PEEDATPEELQRYYVSLRHYYNWLTRQRY-NH2
SMILES: CC(C)CC(=O)N[C@@H](C)C(=O)N1CCC[C@H]1C(=O)N[C@@H](C)C(=O)N[C@@H](CCCCNC(=O)CCCCCNC(=O)CC[C@H](NC(=O)CCCCCCCCCCCCCCCCC(=O)O)C(=O)O)C(=O)N1CCC[C@H]1C(=O)N[C@@H](CCC(=O)O)C(=O)N[C@@H](CCC(=O)O)C(=O)N[C@@H](CC(=O)O)C(=O)N[C@@H](C)C(=O)N[C@H](C(=O)N1CCC[C@H]1C(=O)N[C@@H](CCC(=O)O)C(=O)N[C@@H](CCC(=O)O)C(=O)N[C@@H](CC(C)C)C(=O)N[C@@H](CCC(N)=O)C(=O)N[C@@H](CCCNC(=N)N)C(=O)N[C@@H](Cc1ccc(O)cc1)C(=O)N[C@@H](Cc1ccc(O)cc1)C(=O)N[C@H](C(=O)N[C@@H](CO)C(=O)N[C@@H](CC(C)C)C(=O)N[C@@H](CCCNC(=N)N)C(=O)N[C@@H](Cc1c[nH]cn1)C(=O)N[C@@H](Cc1ccc(O)cc1)C(=O)N[C@@H](Cc1ccc(O)cc1)C(=O)N[C@@H](CC(N)=O)C(=O)N[C@@H](Cc1c[nH]c2ccccc12)C(=O)N[C@@H](CC(C)C)C(=O)N[C@H](C(=O)N[C@@H](CCCNC(=N)N)C(=O)N[C@@H](CCC(N)=O)C(=O)N[C@@H](CCCNC(=N)N)C(=O)N[C@@H](Cc1ccc(O)cc1)C(N)=O)[C@@H](C)O)C(C)C)[C@@H](C)O
On to B4, for which the Ki in experiment [1] was 5.64 nM. In addition, the “EC50, HTRF cAMP Gi assay” value in experiment [2] is 0.108 nM; in experiment [3], > 5000 nM.

B5: Compound 16 (peptide)
peptide: Isovaleryl-APEK([Ahx-γGlu-C18 diacid])PEEDATPEELQKYYVSLRHYYNWLTRQRY-NH2
SMILES: CC(C)CC(=O)N[C@@H](C)C(=O)N1CCC[C@H]1C(=O)N[C@@H](CCC(=O)O)C(=O)N[C@@H](CCCCNC(=O)CCCCCNC(=O)CC[C@H](NC(=O)CCCCCCCCCCCCCCCCC(=O)O)C(=O)O)C(=O)N1CCC[C@H]1C(=O)N[C@@H](CCC(=O)O)C(=O)N[C@@H](CCC(=O)O)C(=O)N[C@@H](CC(=O)O)C(=O)N[C@@H](C)C(=O)N[C@H](C(=O)N1CCC[C@H]1C(=O)N[C@@H](CCC(=O)O)C(=O)N[C@@H](CCC(=O)O)C(=O)N[C@@H](CC(C)C)C(=O)N[C@@H](CCC(N)=O)C(=O)N[C@@H](CCCCN)C(=O)N[C@@H](Cc1ccc(O)cc1)C(=O)N[C@@H](Cc1ccc(O)cc1)C(=O)N[C@H](C(=O)N[C@@H](CO)C(=O)N[C@@H](CC(C)C)C(=O)N[C@@H](CCCNC(=N)N)C(=O)N[C@@H](Cc1c[nH]cn1)C(=O)N[C@@H](Cc1ccc(O)cc1)C(=O)N[C@@H](Cc1ccc(O)cc1)C(=O)N[C@@H](CC(N)=O)C(=O)N[C@@H](Cc1c[nH]c2ccccc12)C(=O)N[C@@H](CC(C)C)C(=O)N[C@H](C(=O)N[C@@H](CCCNC(=N)N)C(=O)N[C@@H](CCC(N)=O)C(=O)N[C@@H](CCCNC(=N)N)C(=O)N[C@@H](Cc1ccc(O)cc1)C(N)=O)[C@@H](C)O)C(C)C)[C@@H](C)O
B5: affinity in experiment [1] was put at a Ki of 2.81 nM. Also, the results for the “EC50, HTRF cAMP Gi assay” value in experiment [2] and in experiment [3] were 0.31 nM and > 5000 nM, respectively.

Values taken from patent US20260015399A1 (Boehringer Ingelheim, published 2026).
